Patent US20240122983A1 (SHATTUCK LABS, published 2024)
Read-outs that look alike come from different tables or passages of the source. Blank lines part the entries; values can stand above or below the binder they belong to.

What was measured:
[1] = molecular target: T1, recombinant mouse mFLT3 protein (mouse, UniProt Q00342 28-544, limits assumed); assay: Octet biolayer interferometry, mFLT3-his captured on the sensor
T1 sequence (looked up): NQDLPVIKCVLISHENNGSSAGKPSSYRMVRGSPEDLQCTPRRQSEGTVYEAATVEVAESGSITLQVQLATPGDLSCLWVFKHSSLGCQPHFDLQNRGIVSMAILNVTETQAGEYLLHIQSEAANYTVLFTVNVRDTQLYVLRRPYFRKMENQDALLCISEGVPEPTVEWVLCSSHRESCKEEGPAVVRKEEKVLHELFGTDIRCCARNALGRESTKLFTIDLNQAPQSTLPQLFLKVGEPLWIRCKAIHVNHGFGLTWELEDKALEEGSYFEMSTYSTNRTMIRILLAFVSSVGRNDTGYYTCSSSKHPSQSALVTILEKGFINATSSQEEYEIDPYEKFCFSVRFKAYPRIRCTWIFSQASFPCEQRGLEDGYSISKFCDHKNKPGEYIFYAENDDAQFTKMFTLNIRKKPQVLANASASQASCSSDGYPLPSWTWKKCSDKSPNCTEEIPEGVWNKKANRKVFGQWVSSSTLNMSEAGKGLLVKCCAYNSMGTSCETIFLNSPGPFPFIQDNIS
Description: Octet was used to determine on-/off-rates and binding affinities to the target receptors.

[2] = molecular target: T2, anti-mIgG; assay: ELISA: plate-bound anti-mIgG (10ug/ml), detection anti-mIgG-HRP (1:1000)
T2 construct: capture antibody of the mFc ELISA; also called Capture Ab: anti-mIgG(10ug/ml)
Description: (§1) Recombinant mFLT3L protein was used to generate a standard curve. […] A mouse whole IgG was used to generate a standard curve. […] Recombinant m4-1BBL protein was used to generate a standard curve.

[3] = molecular target: T2, anti-mIgG; assay: as above; remark: listed apart in the source
Description: as §1
Recombinant mFLT3L protein was used to generate a standard curve. […] A mouse whole IgG was used to generate a standard curve. […] Recombinant mOX40L protein was used to generate a standard curve.

[4] = molecular target: T3, recombinant mouse m4-1BB protein (mouse, UniProt P20334 24-187); assay: ELISA: plate-bound m41BB (3.3ug/ml), detection anti-m41BBL (1:1000) and anti-goat IgG (1:10,000)
T3 sequence (looked up): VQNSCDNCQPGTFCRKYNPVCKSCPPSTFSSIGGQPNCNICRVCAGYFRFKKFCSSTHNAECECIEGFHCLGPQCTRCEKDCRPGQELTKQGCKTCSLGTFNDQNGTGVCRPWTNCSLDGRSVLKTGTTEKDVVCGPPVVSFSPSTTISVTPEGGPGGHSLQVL
Description: as §1

[5] = molecular target: T3, recombinant mouse m4-1BB protein; assay: Dual ELISA: capture anti-FLT3L (R&D AF427), detection with m41BB-His (Acro), tertiary anti-His/HRP (Abcam)
Experimental: Capture was performed with an anti-FLT3L antibody, followed by detection of the co-stimulatory domain with a his-tagged recombinant protein, and visualized using an anti-his/HRP antibody.

B1: mCD40L-Fc (Acro) (Fc fusion, mouse, UniProt P27548 112-260, looked up)
fusion chain: MQRGDEDPQIAAHVVSEANSNAASVLQWAKKGYYTMKSNLVMLENGKQLTVKREGLYYVYTQVTFCSNREPSSQRPFIVGLWLKPSSGSERILLKAANTHSSSQLCEQQSVHLGGVFELQAGASVFVNVTEASQVIHRVGFSSFGLLKL
notes: soluble part fused to Fc; also called commercially available mCD40L-Fc (Acro Biosystems)
- binding result [1]: no binding (tested: concentration not printed)

- EC50 (read off the curve) [2]: ~7 nM
- EC50 (read off the curve) [3]: ~7 nM
- EC50 (read off the curve) [4]: ~9 nM
- EC50 (read off the curve) [5]: ~1 nM
B2: mFLT3L-Fc-4-1BBL chimeric protein (Fc fusion, murine;mouse (printed as mFc), UniProt P49772 27-189, looked up)
chain: GTPDCYFSHSPISSNFKVKFRELTDHLLKDYPVTVAVNLQDEKHCKALWSLFLAQRWIEQLKTVAGSKMQTLLEDVNTEIHFVTSCTFQPLPECLRFVQTNISHLLKDTCTQLLALKPCIGKACQNFSRCLEVQCQPDSSTLLPPRSPIALEATELPEPRPRQVPRDCGCKPCICTVPEVSSVFIFPPKPKDVLTITLTPKVTCVVVDISKDDPEVQFSWFVDDVEVHTAQTQPREEQFNSTFRSVSELPIMHQDWLNGKEFKCRVNSAAFPAPIEKTISKTKGRPKAPQVYTIPPPKEQMAKDKVSLTCMITDFFPEDITVEWQWNGQPAENYKNTQPIMNTNGSYFVYSKLNVQKSNWEAGNTFTCSVLHEGLHNHHTEKSLSHSPGKRTEPRPALTITTSPNLGTRENNADQVTPVSHIGCPNTTQQGSPVFAKLLAKNQASLCNTTLNWHSQDGAGSSYLSQGLRYEEDKKELVVDSPGLYYVFLELKLSPTFTNTGHKVQGWVSLVLQAKPQVDDFDNLALTVELFPCSMENKLVDRSWSQLLLLKAGHRLSVGLRAYLHGAQDAYRDWELSYPNTTSFGLFLVKPDNPWE
notes: extracellular domain;domain: hinge-CH2-CH3 Fc domain; Expressed in 293 cells, purified on protein A; also called murine FLT3L-Fc-4-1BBL
